The results in this text go back to US20100239587A1 (published 2010).

Bridge positions count the residues as written; N and C are the ends. Ends that are not written are not given here.

The Kd is the equilibrium constant for the complex coming apart. A lower Kd goes with higher affinity.

The target of assay [1] is TNF receptor (immobilized control). Briefly: SPR, receptor immobilized, peptide injected. A general note: In SPR one partner is held on a chip, and binding of the other changes the refractive index at the surface.
For assay [2], the target named is T1, ErbB1 extracellular domain (recombinant, soluble) (UniProt P00533 25-645, limits assumed).
T1 construct: extracellular domain; also called erbB1 ectodomain; EGFr
Briefly: SPR; 10 µM peptide pre-injected over immobilized ErbB1; competitor: ErbB3 ectodomain (300 nM) with HRGβ1 (5 µM).

Assay [3] deals with T2, ErbB2 extracellular domain (recombinant) (UniProt P04626 23-652, limits assumed).
T2 construct: extracellular domain; also called erbB2 ectodomain; full-size erbB2 ectodomain
Briefly: SPR; 10 µM peptide pre-injected over immobilized ErbB2; competitor: ErbB3 ectodomain (300 nM) with HRGβ1 (5 µM).

Assay [4] concerns the target T3, ErbB3 extracellular domain (recombinant, soluble) (UniProt P21860 20-643, limits assumed).
T3 construct: extracellular domain; Used both immobilized and as the injected analyte (300 nM, alone or with 5 µM HRGβ1); also called erbB3 ectodomain
Briefly: SPR; 10 µM peptide pre-injected over immobilized ErbB3; competitor: ErbB3 ectodomain (300 nM) with HRGβ1 (5 µM).

T3 sequence (P21860 20-643 limits assumed): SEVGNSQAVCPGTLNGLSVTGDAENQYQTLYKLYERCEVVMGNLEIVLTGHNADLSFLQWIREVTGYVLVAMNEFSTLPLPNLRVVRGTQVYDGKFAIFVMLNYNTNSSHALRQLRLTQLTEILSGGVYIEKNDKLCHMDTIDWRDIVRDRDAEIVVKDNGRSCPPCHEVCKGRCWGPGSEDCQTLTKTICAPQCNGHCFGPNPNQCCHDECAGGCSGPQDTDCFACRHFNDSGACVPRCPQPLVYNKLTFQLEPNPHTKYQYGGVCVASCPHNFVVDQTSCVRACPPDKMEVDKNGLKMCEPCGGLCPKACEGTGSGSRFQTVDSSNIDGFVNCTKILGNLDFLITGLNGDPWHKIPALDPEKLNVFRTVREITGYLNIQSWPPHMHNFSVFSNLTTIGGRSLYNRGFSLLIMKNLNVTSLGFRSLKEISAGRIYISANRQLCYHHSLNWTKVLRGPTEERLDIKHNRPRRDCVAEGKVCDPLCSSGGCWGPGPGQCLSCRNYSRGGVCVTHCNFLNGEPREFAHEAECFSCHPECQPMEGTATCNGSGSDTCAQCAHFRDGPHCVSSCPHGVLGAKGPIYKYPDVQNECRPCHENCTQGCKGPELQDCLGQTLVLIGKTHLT

B1: B3-S22-APQ (peptide)
peptide: YCPIYKYPDVQCY
modifications: disulfide 2-12 (inferred)
notes: Derived from the S22 repeat of erbB3
For the molecule B1, the Kd in assay [1] is over 1 mM.

B2: B2-S22-APE (peptide)
peptide: YCPIWKFPDEECY
modifications: disulfide 2-12 (inferred)
notes: Derived from the S22 repeat of erbB2
In assay [1], B2 displayed a dissociation constant (Kd) of over 1 mM.

B3: B2-S22-AFA (peptide)
peptide: YCFPDEEGACY
modifications: disulfide 2-10 (inferred)
notes: Cyclic peptide that mimics part of the S22 loop of erbB2
Consider B3, for which the Kd in assay [1] was over 1 mM.

B4: CD4-G (peptide)
peptide: FCYIGEVEDQCY
modifications: disulfide 2-11 (inferred)
notes: Negative control peptide; also called CD4 receptor-derived cyclic peptide; control peptide
In turn, B4 yielded a Kd in assay [1] of over 1 mM. Besides, the “Percent Inhibition” value in assay [2] is 2.4%; in assay [3], -1.2%; in assay [4], 3.1%.

B5: B1-S22-ALG (peptide)
peptide: YCLVWKYADAGCY
modifications: disulfide 2-12 (inferred)
notes: Derived from the S22 repeat of erbB1
Take B5: in assay [1], the Kd is over 1 mM.

B6: B4-S22-AFD (peptide)
peptide: YCFIFKYADPDCY
modifications: disulfide 2-12 (inferred)
notes: Derived from the S22 repeat of erbB4
The molecule B6 yielded a Kd in assay [1] of over 1 mM.
